These results are taken from doi:10.1101/2020.08.21.261974.

In the assay the target is BG505 SOSIP.664 native-like envelope gp140 trimer (HIV-1 (BG505)). The assay can be described thus: cryo-EM structure.

As for M48U1 peptide, the stoichiometry N (per BG505 trimer) stood at 3.
